Test system: MS2 coat protein
Assay: apparent KD of MS2 coat protein; designed switch direction (-1 OFF switch, 1 ON switch): -1; higher = weaker reporter binding
Outline: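 For each design, the apparent KD is the median over clusters of curves fitted to normalised cluster fluorescence. Clusters held RNA switches with common flanks, transcribed on Illumina chips by stalled E. coli RNA polymerase. These were titrated with SNAP-549-labelled MS2 coat protein, doubling from 0.7 or 1.5 nM to 3 µM, without input, with 200 uM small-molecule ligand, or with an oligonucleotide input.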

[1] = input ligand: microRNA oligo, concentration not stated
[2] = Eterna round: R95, input ligand: FMN 200 uM
[3] = Eterna round: R95, input ligand: microRNA oligo, concentration not stated
[4] = Eterna round: R95, input ligand: none

| Sequence | apparent KD of MS2 coat protein [1] | apparent KD of MS2 coat protein (input ligand: FMN 200 uM) | apparent KD of MS2 coat protein (input ligand: none) | apparent KD of MS2 coat protein [2] | apparent KD of MS2 coat protein [3] | apparent KD of MS2 coat protein [4] |
| --- | --- | --- | --- | --- | --- | --- |
| UUUUUAUUUGAAGGAUAUACUUAACAUGAGGAUCACCCAUGUGGUGUUGUGAGUGAGUGAGUUUAGUAGAAGGUCAAUUCUUUU [JMF's solution 85] (Eterna round: R96, puzzle: Exclusion NG 2) | 391 nM |  |  |  |  |  |
| UGCAGACGAGGAUAUAGAUUUAGAUACAUGAGGAUCACCCAUGUAUACAUGUAUUUAGAUUUAGAAGGCGUCUGCA [E5/14-A2] (Eterna round: R97, puzzle: Exclusion 5) |  | 422 nM | 886 nM |  |  |  |
| AGAGUACUGCGAGGAUAUACAUGAGGAUCACCCAUGUAAUAGUGUGAGGCUUUGCCUCACACAAUGUAGAAGGCGCAGUACUCA [Mat - Exclusion NG 2 - Mod of JL - D6] (Eterna round: R96, puzzle: Exclusion NG 2) | 9.81 nM | 15.7 nM | 17.8 nM |  |  |  |
| AUAUAACAUGAGGAUCACCCAUGUGAGGAUAUGCGAUAUAUAAUAAUAAUAAUAAUAAGCAGAAGGCACAAAAU [My FIrst Design] (puzzle: Exclusion 1) |  |  |  | 60.2 nM | 78.7 nM | 71.7 nM |
| UAGUGAAACACAGGAUAUCGCCUCUUAUUACAUGAGGAUCACCCAUGUUUAGUUAGUUACAUGUACGAGAAGGGUGAAGUAGUU [JR_ExcNG2_Sub040] (Eterna round: R96, puzzle: Exclusion NG 2) | 674 nM | 1110 nM | 1430 nM |  |  |  |
| UAUUGUAGACAGGAUAUCUAUCGGGUAACCCGAAGAGAAGGGUCUACAUGAGGAUCACCCAUGUGGCCCGUUUU [EX6 B.29] (Eterna round: R97, puzzle: Exclusion 6) |  | 42 nM | 21.5 nM |  |  |  |
| AAACCUUGAGGAUAUACAUAACAACAAAGCCUCACGUGCCAACAUGAGGAUCACCCAUGUAGAAGGCAGGCCAA [Mod R3 Insanara 11 - Jieux - Exclusion 2] (Eterna round: R97, puzzle: Exclusion 2) |  | 15.6 nM | 12.7 nM |  |  |  |
| CACUGGACAGGAUAUGUUCUUGAGCACUUGAGGAUCACCCAAGUCAUCAAGAACUCAGGCACAGAAGGGUUUAUGU [salish99_ex5_r4_014] (Eterna round: R97, puzzle: Exclusion 5) |  | 44.5 nM | 15.8 nM |  |  |  |
| CCUAUGUGAGGAUAUCACUGGUCUUUUCAUUAGAUGAUCAGUGAGAAGGCACAUGAGGAUCACCCAUGUCAGUG [Ex4 - 3 - 53] (puzzle: Exclusion 4) |  |  |  |  | 71.8 nM |  |
| GUCAGCUCGUGAGGAUAUAUAUACAUGAGGAUCACCCAUGUAAGAUCAGGCUUCGGCCAAUGUAUAUAGAAGGCACGAGCUGAU [ENG2/11-A2] (Eterna round: R96, puzzle: Exclusion NG 2) | 695 nM | 847 nM | 1120 nM |  |  |  |
| UACACUGCAUGAGGAUCAAACAUGAGGAUCACCCAUGUGUAGCAAGCUUUUUGCUCGUCUUAUAAUUAUGUAGUGUA [Electric Eye 11 - Jieux - Sensor, turn-off variant 1] (Eterna round: R97, puzzle: Sensor, turn-off variant 1) |  | 14 nM | 12.1 nM |  |  |  |
| AAUCAUGAACGAGCUUUUUACAUGAGGAUCACCCAUGUCCUCUGCUCGUCUUGUCUUGGGCUUUUUUUGGGUUCGGG [-22.4, -44.7 kcal, A 16%] (Eterna round: R97, puzzle: Sensor, turn-off variant 1) |  | 320 nM | 355 nM |  |  |  |
| AGCUUUUUGUUCGUCUUAUACAUGAGGAUCACCCAUGUAUUGGACCGCAUCGAUAGAUGUAGACCGAGAAGCAUGGG [Omdei Mir OFFv1 C6] (Eterna round: R97, puzzle: Sensor, turn-off variant 1) |  | 63 nM | 55.3 nM |  |  |  |
| CAUUAAACGGAGGAUAUCCUAUAUAUAAUAAUAGGAGAAGGUCGUACAUGAGGAUCACCCAUGUGUGGACAUGG [something] (puzzle: Exclusion 6) |  |  |  | 107 nM | 206 nM | 249 nM |
| AAGUUGAAAGUCAGGAUAUCCAGACAAAAGUCAACGGAGAAGGGACUUGAGGAUCACCCAAGUGACCCUAAAUG [Usraleribe] (Eterna round: R97, puzzle: Brourd's mod of Exclusion 4) |  | 23.9 nM | 14.8 nM |  |  |  |
| CAGCUGAAAGUCAGGAUAUCUAGAGCUUCGGCUCUAGAGAAGGGACAUGAGGAUCACCCAUGUGAUUACAGCUG [BmEx4/6-A1] (Eterna round: R97, puzzle: Brourd's mod of Exclusion 4) |  | 108 nM | 60.6 nM |  |  |  |
| CCAAGCUUAUUCAUUAACCACAUGAGGAUCACCCAUGUCUAGGCAAUUAUGACUGGCCCAUCUGGUGCUCGUCUUAU [Sensor-V1 #31] (Eterna round: R97, puzzle: Sensor, turn-off variant 1) |  | 20.9 nM | 20.8 nM |  |  |  |
